# Data taken from patent publication US20240239872A1 (SHANDONG AGRICULTURAL UNIVERSITY, published 2024).
# B1: monoclonal antibody M1 (antibody, V domains shown)
# VH: QVQLQQSGPELVRPGASVKMSCKTSGYPFSTYWMHWVKQRPGQGLEWIGMIKPSNSETSLNQKFKDKATLNVDKSSNTAYMQLNSLTSEDSGVYYCARAGDSWGQGTTLTVSS
# VL: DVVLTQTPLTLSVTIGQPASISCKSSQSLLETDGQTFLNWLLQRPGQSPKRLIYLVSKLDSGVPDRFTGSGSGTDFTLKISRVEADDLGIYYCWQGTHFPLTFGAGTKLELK
# notes: also called MAb M1
# B2: monoclonal antibody N1 (antibody, V domains shown)
# VH: EVQLVESGGGLVQPGGSLKLSCAASGFTFSSYGMSWVRQSPDKRLEWVATINNNGGSTYYPDSVKGRFTISRDNAKNTLYLQMSSLKSEDTAVYYCARDAAFDCWGQGTTLTVSS
# VL: DIVMSQSPSSLAVSAGEKVTMSCKSSQSLLNSRTRKNYLAWYQQKPGQSPKLLIYWASTRESGVPDRFTGSGSGTDFTLTISSVQAEDLAVYYCKQSYNLFTFGSGTKLEIK
# notes: also called MAb N1
# B3: monoclonal antibody M3 (antibody, V domains shown)
# VH: EVILVESGGGLVKPGGSLRLSCAASGFTFSSHPLSWVRQSPDKRLEWVASISSGGRYTYYPDSVKGRLTISRDNAKNILYLHMNSLRSEDTAMYYCARRGSTATAWFAYWGQGTLVTVSA
# VL: DIALTQSPASLAVSLGQRATISCKASQSVDYDGDSYMSWYQQKPGQPPKLLIYGASNLESGIPARFSGSGSGTDFTLNIHPVEEEDAATYYCQQSNEDLPTFGGGTKLEIK
# notes: also called MAb M3
# B4: monoclonal antibody C1 (antibody, V domains shown)
# VH: EVQLQQSGAELVRPGALVKLSCKASGFNIKDYYMHWVKQRPEEGLEWIGWIDPENGNTIYDPKFQGKASITADTSSNTVRLQLSSLTSEDTAVYYCARERGAYWGQGTLVTVSA
# VL: QIVLTQSPAIMSASPGEKVTMTCSASSSVSYMYWFQQKPGSSPRLLIYDTSNLASGVPVRFSGSGSGTSYSLTISRMEAEDAATFYCQQWSSYPLTFGAGTKLELK
# notes: also called MAb C1
# B5: monoclonal antibody M2 (antibody, V domains shown)
# VH: EVQLVESGGGLVQPKGSLKLSCAASDFTFNTHSMNWVRQAPGKVLEWIARIRSQSNNYATYYADSVKDRFTISRDDSQNMFYLQMNNLKTEDTAMYYCAGDYYGPFAYWGQGTLVAVSA
# VL: DVLMTQTPLSLPVSLGDQASISCRSGQSLVHSNGNTYLHWYLQKPGQSPKLLIYKVSNRFSGVPDRFSGSGSGTDFTLKISRVEAEDLGVYFCSQSTHVPWTFGGGTKLEIK
# notes: also called MAb M2
# Biological target: T1, PVY in juice of infected plants (coat protein on virus) (Potato virus Y)
# Test: dot-ELISA on diluted juice of PVY-infected plants
row,Binder,dilution of PVY-infected juice still detected
1,B1,5120 times (fold dilution)
2,B2,10200 times (fold dilution)
3,B3,5120 times (fold dilution)
4,B4,5120 times (fold dilution)
5,B5,640 times (fold dilution)

# Biological target: T1, PVY in juice of infected plants (coat …)
# Test: indirect ELISA (antigen not stated)
row,Binder,Titer
1,B1,243000 reciprocal dilution
2,B2,243000 reciprocal dilution
3,B3,243000 reciprocal dilution
4,B4,243000 reciprocal dilution
5,B5,243000 reciprocal dilution
